# Source: paper PMC5015263, “Casitas B-lineage lymphoma linker helix mutations found in myeloproliferative neoplasms affect conformation” (BMC Biology, 2016)
# Residue numbers refer to the chain shown, from its start. Names and notes keep the numbering of the source.
# B1: His-GST-N-Cbl wild-type (residues 47-435) (domain or fragment, UniProt P22681 47-435, looked up)
# chain: PPGTVDKKMVEKCWKLMDKVVRLCQNPKLALKNSPPYILDLLPDTYQHLRTILSRYEGKMETLGENEYFRVFMENLMKKTKQTISLFKEGKERMYEENSQPRRNLTKLSLIFSHMLAELKGIFPSGLFQGDTFRITKADAAEFWRKAFGEKTIVPWKSFRQALHEVHPISSGLEAMALKSTIDLTCNDYISVFEFDIFTRLFQPWSSLLRNWNSLAVTHPGYMAFLTYDEVKARLQKFIHKPGSYIFRLSCTRLGQWAIGYVTADGNILQTIPHNKPLFQALIDGFREGFYLFPDGRNQNPDLTGLCEPTPQDHIKVTQEQYELYCEMGSTFQLCKICAENDKDVKIEPCGHLMCTSCLTSWQESEGQGCPFCRCEIKGTEPIVVDPFD
# notes: Cbl (c-Cbl), N-terminal fragment with TKBD, linker helix region and RING domain (N-Cbl), residues 47-435; Modified pGEX4T1 with N-terminal His-GST tag followed by a thrombin or TEV cleavage site; tag not cleaved for SPR; also called WT; wild-type N-Cbl; not shown: His, N-terminal, kept; GST, N-terminal, kept
# B2: His-GST-N-Cbl Y368F (residues 47-435) (domain or fragment, UniProt P22681 47-435, looked up)
# chain: B1 chain with Y322F
# notes: Cbl (c-Cbl), N-terminal fragment with TKBD, linker helix region and RING domain (N-Cbl), residues 47-435; Tag not cleaved for SPR; not shown: His, N-terminal, kept; GST, N-terminal, kept
# B3: His-GST-N-Cbl M222E (residues 47-435) (domain or fragment, UniProt P22681 47-435, looked up)
# chain: B1 chain with M176E
# notes: as for B2
# B4: His-GST-N-Cbl Y371F (residues 47-435) (domain or fragment, UniProt P22681 47-435, looked up)
# chain: B1 chain with Y325F
# notes: as for B2
# B5: His-GST-N-Cbl Y371H (residues 47-435) (domain or fragment, UniProt P22681 47-435, looked up)
# chain: B1 chain with Y325H
# notes: Cbl (c-Cbl), N-terminal fragment with TKBD, linker helix region and RING domain (N-Cbl), residues 47-435; mutation identified in MDS/MPN clinical samples; Tag not cleaved for SPR; not shown: His, N-terminal, kept; GST, N-terminal, kept
# B6: His-GST-N-Cbl Y371C (residues 47-435) (domain or fragment, UniProt P22681 47-435, looked up)
# chain: B1 chain with Y325C
# notes: as for B5
# B7: His-GST-N-Cbl Y371A (residues 47-435) (domain or fragment, UniProt P22681 47-435, looked up)
# chain: B1 chain with Y325A
# notes: as for B2
# B8: His-GST-N-Cbl Y371S (residues 47-435) (domain or fragment, UniProt P22681 47-435, looked up)
# chain: B1 chain with Y325S
# notes: as for B5
# B9: His-GST-N-Cbl Y371D (residues 47-435) (domain or fragment, UniProt P22681 47-435, looked up)
# chain: B1 chain with Y325D
# notes: as for B5
# B10: His-GST-N-Cbl Y371E (residues 47-435) (domain or fragment, UniProt P22681 47-435, looked up)
# chain: B1 chain with Y325E
# notes: as for B2
# B11: His-GST-pTyr371-N-Cbl Y368F (residues 47-435) (domain or fragment, UniProt P22681 47-435, looked up)
# chain: B1 chain with Y322F
# modifications: phosphotyrosine at 371
# notes: Cbl (c-Cbl), N-terminal fragment with TKBD, linker helix region and RING domain (N-Cbl), residues 47-435; Y368F is required for homogeneous phosphorylation at Tyr371; also called pY371 Y368F; source: generated as described previously [6]; not shown: His, N-terminal, kept; GST, N-terminal, kept
# Molecular target: T1, UbcH5B S22R C85K–Ub (UniProt P62837 1-147; P0CG47 1-76, S22R | C85K, conjugated to Ub via an isopeptide bond (non-hydrolyzable amide linkage) | conjugated to UbcH5B via an isopeptide bond)
# T1 construct: E2 ubiquitin-conjugating enzyme UbcH5B; ubiquitin (Ub); also called UbcH5B–Ub; E2–Ub; source: expressed, generated and purified as described previously [7]
# Assay: SPR; GST-Cbl variants coupled to CM-5 chips; UbcH5B–Ub as analyte at 0–120 μM; Biacore T200
# Settings: both partners purified
row,Binder,Kd
1,B1,84 µM
2,B2,49 µM
3,B3,14 µM
4,B4,84 µM
5,B5,39 µM
6,B6,36 µM
7,B7,30 µM
8,B8,16 µM
9,B9,10 µM
10,B10,9 µM
11,B11,2.6 µM
